Test results as given in patent US10357554B2, “AMA-1 epitopes, antibodies, compositions, and methods of making and using the same” (THE UNITED STATES OF AMERICA, AS REPRESENTED BY THE …, dated 2019).
Where two headings read alike, the source gives them in different places.

T1: AMA-1 on P. falciparum 3D7 strain parasites (Plasmodium falciparum)
T1 chain: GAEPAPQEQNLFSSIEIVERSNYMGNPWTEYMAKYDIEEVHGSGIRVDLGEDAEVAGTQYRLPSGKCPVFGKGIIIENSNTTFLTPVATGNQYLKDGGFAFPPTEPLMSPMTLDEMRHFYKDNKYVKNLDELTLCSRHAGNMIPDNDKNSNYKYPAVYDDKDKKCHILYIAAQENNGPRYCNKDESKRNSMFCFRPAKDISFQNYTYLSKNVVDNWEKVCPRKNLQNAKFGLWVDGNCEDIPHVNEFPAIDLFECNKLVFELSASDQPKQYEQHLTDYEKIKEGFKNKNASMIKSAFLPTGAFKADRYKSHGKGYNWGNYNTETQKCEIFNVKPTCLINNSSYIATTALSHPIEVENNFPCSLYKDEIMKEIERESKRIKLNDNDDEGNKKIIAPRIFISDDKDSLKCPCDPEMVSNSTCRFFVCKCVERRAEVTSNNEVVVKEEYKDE


Assays:
[1] = target: AMA-1 on P. falciparum 3D7 strain parasites (Plasmodium falciparum)
[2] = target: AMA-1 on P. falciparum 3D7 strain parasites (Plasmodium falciparum); remark: listed apart in the source
[3] = target: T1, AMA-1 on P. falciparum 3D7 strain …; assay: cell-based or functional assay
[4] = target: T1, AMA-1 on P. falciparum 3D7 strain …; assay: cell-based or functional assay
7 AMA-1 allelic proteins = assay: dot blot against 7 AMA-1 allelic proteins

| Molecule | GIA at 1 mg/ml against the 3D7 target strain: Inhibition [1] | IC30 concentration in GIA against 3D7 target parasites [2] | GIA at 1 mg/ml against the 3D7 target strain: Inhibition [3] | IC30 concentration in GIA against 3D7 target parasites [4] | Strain reactivity (of 7 AMA-1 allelic proteins) (7 AMA-1 allelic proteins) |
| --- | --- | --- | --- | --- | --- |
| rat mAb 4G2dc1 (antibody) | 22% | 1800 mg/L |  |  |  |
| Monoclonal 1B10 (antibody, V domains shown) VH: EVQLQESGPGLVQPSQSLSITCTVSGFSLNMYGVHWVRQSPGKGLEWLGVIWSGGTTDYNAAFISRLSINRDNSKSQVFFKMNSLQTDDTAIYYCVRNNGYYVDAMDYWGQGTSVAVSS VL: DVVMTQTPLSLPVSLGDQASISCRSSQSLVHSNGNTYLHWYLQRPGQSPKLLIYKVSNRFSGVPDRFSGSGSGTDFTLKISRVEAEDLGVYFCSQSTLGPTFGGGTKLEMQR |  |  | 65% | 150 mg/L | 5 |
| Monoclonal 4E11 (antibody, V domains shown) VH: EVQLQESGPGLVRPSQSLSITCTVSGFSLPLYGVHWVRQSPGKGLEWLGVIWSGGSTDYNAAFVSRLSISKDNSKSQVFFEMNSLQADDTATYYCARNNGYYVDAMDYWGQGTSVTVSS VL: DVVMTQTPLSLPVSLGDQASISCRSSQSLVHSNGNTYLHWYLQKPGQSPKLLIFKVSNRFSGVPDRFSGSGSGTDFTLQISRVEAEDLGFYFCSQSTHVPTFGGGTKLEIKR |  |  | 62% | 220 mg/L | 5 |
| Monoclonal 4E8 (antibody, V domains shown) VH: EVQLQESGPGLVQPSQSLSITCTVSDFSLIMYGVHWVRQSPGKGLEWLGVIWSGGSTDYNAAFISRLSISKDNSKSQVFFKMNSLQADDTAIYYCARNNGYYVDAMDYWGQGTSVTVSS VL: DVVMTQTPLSLPVSLGDQASISCRSSQSLVHNNGNTYLHWYLQKPGQSPKLLIYKVSNRFFGVPDRFSGSGSGTDFTLKISRVEAEDLGVYFCSQSTHVPTFGGGTKLEIKR |  |  | 67% | 150 mg/L | 6 |
| Monoclonal 1E10 (antibody, V domains shown) VH: EVQLQESGAELAKPGASVKLSCKASGYTFTNYLMHWIKQRPGQGLEWIGYINHGSGYTNYNQKFIDRATLTADKSSSTAYMQLRSLTYEDSAVYYCVHGYFDVWGTGTTVTVSS VL: QIVLTQSPTIMSASPGEKVTMTCSASSSVTYMHWYQQKPGTSPKRWIYDTSKLASGVPARFSGSGSGTSYSLTISSMEAEDAATYYCHQRSSYPTFGGGTKLEIKR |  |  | 20% | 1900 mg/L | 7 |
